± gives the half width of the 95% confidence interval.
Assays:
[1] = folding stability dG unfold from chymotrypsin proteolysis; higher = more stable
Method in brief: (§1)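 Designed mini-proteins with no cysteine and under 80 residues were kept only if AlphaFold2 dimer inter-PAE was above 15. In a PA-tagged cDNA display construct, they were digested with trypsin and chymotrypsin and then sequenced. K50 was inferred by Bayesian fitting of counts, and unfolding free energy was derived per protease or combined against a sequence-predicted unfolded-state K50 and a shared folded-state K50.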

[2] = folding stability dG unfold (combined trypsin and chymotrypsin); higher = more stable
Method in brief: as §1

[3] = folding stability dG unfold from trypsin proteolysis; higher = more stable
Method in brief: as §1

| Sequence | folding stability dG unfold [1] [kcal/mol] | folding stability dG unfold [2] [kcal/mol] | folding stability dG unfold [3] [kcal/mol] |
| --- | --- | --- | --- |
| SAGGSAGGSAGGMFYIKNEKGEVFPFTSLEEFLKQLEEKTGKPVKLNNIVIYPAAPHSLSAGGSAGGSAGGS [r10_62_TrMRF] | 1.81 ± 0.15 | 1.7 ± 0.27 | 1.04 ± 0.042 |
| SAGGSAGGSAGLKPGDEVLVISIEVETEIKLEEKDGKLTLETETKVKITITRVKLPEGAESAGGSAGGSAGG [r17_186_TrROS_Hall] | 3.01 ± 0.21 | 3.82 ± 0.25 | 3.79 ± 0.22 |
| SAGGSAGGSAGGNVIRVEKEPNTVVLYFPDGTYRVVEVEKKDESVKVLSEKVEPIVPGLLSAGGSAGGSAGG [r7_443_JUSTAS] | -0.177 ± 0.2 | 0.702 ± 0.059 | 1.12 ± 0.024 |
| SAGGSAGGSAGGMMKTTITITLPPNSSKEEAEKIKEEGLPAEEIVVEKNPDGTRVVTILESAGGSAGGSAGG [r11_97_JUSTAS] | 0.657 ± 0.051 | 0.237 ± 0.15 | -0.915 ± 0.31 |
| SAGGGWPWVVKFEPPDGKEMEFVIPFNPKKNWYWIKMPGNGKTVPVPLDDLEEQPGFQIDEIEPLDDLSAGG [r13_994_TrROS] | 1.31 ± 0.48 | 1 ± 0.27 | -0.0768 ± 0.33 |
| SAGGSAGGSAMKVVSVEAAPGQTVTVRVLVEDPETQELYELEVTVTVTAPEPVTVELPPEASAGGSAGGSAG [r3_271_TrROS_Hall] | 2.47 ± 0.082 | 2.03 ± 0.23 | 1.89 ± 0.15 |
| SAGGPVTTVSVSGFVLPDGSRALLVTVATYYPDGYVAVPPVLVLVYPNGESEASTSTLVVKVPGGALSAGGS [r16_505_TrMRF] | 3.008 ± 0.011 | 2.79 ± 0.04 | 2.3 ± 0.056 |
| SAGGMKIKKITVEKNPETGELVVTVEVEINGKKYKFTFYKDGTVKVEVEVNGKKVTITLPVEELKKLSAGGS [r8_238_TrROS_Hall] | 3.8 ± 0.063 | 3.35 ± 0.13 | 2.13 ± 0.058 |
| SAGGSAGGSAGGMEIEFEKAKFEIEEIDPEKGKIKVKFPGLEKEFEIEFDKKGKIVKISGSAGGSAGGSAGG [r7_553_TrMRF] | 0.959 ± 0.036 | 0.612 ± 0.12 | 0.228 ± 0.057 |
| SAGGSAGGSAGSMVTKTTTVEEKIGPGNLKLVKEKITIYDPSTGKPIKEETKITIEPVLLSAGGSAGGSAGG [r17_317_JUSTAS] | 0.452 ± 0.24 | 0.148 ± 0.38 | -0.493 ± 0.16 |
| SAGGSAGGSAGGSGMITVTIEREYTSYVTFPGGTLEPVLLKTTVTATLPPGVPVEEFLSSAGGSAGGSAGGS [r4_126_JUSTAS] | 1.37 ± 0.12 | 1.54 ± 0.11 | 1.65 ± 0.058 |
| SAGGSAGGSAGGKIVIELPKELEGLTAEELAELLKKEFGEKGLKVTVVEKDGKLYLVIDSAGGSAGGSAGGS [r10_579_TrROS_Hall] | 3.34 ± 0.15 | 3.5 ± 0.24 | 3.43 ± 0.25 |
| SAGKEKVLVIPVKVKPGEKIVVKVPSNSKILIIDLESGEIYEIDVPENVEPVFILPENKEYLIAVVFKSAGG [r19_78_TrMRF] | 3.92 ± 0.086 | 3.38 ± 0.11 | 2.66 ± 0.081 |
| SAGGSAGGSAGMETPVLYNVTVTPPDGSTTTYTVPEGLSEEEIRALLNVPASDTITFSPVSAGGSAGGSAGG [r11_340_JUSTAS] | 2.02 ± 0.029 | 1.99 ± 0.033 | 1.87 ± 0.042 |
| SAGGETLEVKLKNGYLLRIDLETGKVEVRPLKPVKIELKIEVKPPPVEVKLEKEIKLEKKIEVKVEFSAGGS [r16_453_TrROS_Hall] | 2.51 ± 0.062 | 2.15 ± 0.18 | 1.82 ± 0.19 |
| SAGGSAGGSAGGSMVSVEEFEVELPGGSKVKATVLIDPEGPLTVLLGDETFILPKEELGSAGGSAGGSAGGS [r10_649_JUSTAS] | -0.229 ± 0.19 | -0.118 ± 0.13 | -0.22 ± 0.2 |
| SAGSKVIMIPWEDAEKLIEDLPPGKNVTIHWMWPKGPYWTHTIEVKGDKIKIEPLPPNQFPGWRIMITKSAG [r5_85_TrROS] | 1.45 ± 0.17 | 1.65 ± 0.22 | 1.86 ± 0.13 |
| SAGKEVEIKIEIVIKMTPEELKKLAEELAKKLKEAGFEVEVTVEEKEVNGELYAVITVTVRLPPGAKPPSAG [r5_217_TrROS_Hall] | 4.11 ± 0.26 | 3.67 ± 0.42 | 2.81 ± 0.36 |
| SKTIEIEIRVGGELYRIKIKVKRKGEPEEEIELTVPAGMSIEEIAARLKELYPDLKVEIVEIERLPPPEPSA [r9_364_TrROS_Hall] | 4.17 ± 0.11 | 3.86 ± 0.082 | 2.98 ± 0.072 |
| KKKKPPKVVKVEIKFDKKTKKITVKVDGKTFTITLPDGKKIEITVPAGMSEEEIKALAKKLAKELEEKLKKS [r1_25_TrROS_Hall] | 1.97 ± 0.2 | 2.18 ± 0.55 | 3.73 ± 0.12 |
| SAGWFVRIEIEPPGEKREIMIPFSWDEARELLKDLGLEVEVDPESPTFEFKLPNYQIKVEFMPIPPGQMSAG [r5_248_TrROS] | 3.6 ± 0.049 | 3.21 ± 0.12 | 2.34 ± 0.12 |

Source: the supplement of paper PMC12764529
